Experimental data from patent US20200317768A1 (published 2020).
Blank lines part the entries; values can stand above or below the binder they belong to.

Key:
[1] = target: T1, GST-hMSTN 101-200aa (human, UniProt A1C2U3 101-200 (Pongo pygmaeus entry)); assay: Western blot on GST tagged fragments
T1 construct: As GST-hMSTN 1-100aa; also called sixth fragment; not shown: GST tag from the pGEX4.1 vector
T1 sequence: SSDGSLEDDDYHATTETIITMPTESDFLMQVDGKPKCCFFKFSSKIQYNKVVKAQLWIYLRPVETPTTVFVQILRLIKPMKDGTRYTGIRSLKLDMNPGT
From the text: (§1) Fragments of the N-terminal propeptide coding region of human latent myostatin were cloned into a pGEX4.1 vector so as to produce GST tagged propeptide fragments of 100 amino acid each, with 80 amino acid overlap (FIG. 22A). Protein expression was induced in transformed BL21 competent cells with Overnight Express Autoinduction System (Merck Millipore) and protein was extracted using the BUGBUSTER® protein extraction reagent (Novagen).

[2] = target: T2, GST-hMSTN 121-220aa (human, UniProt A1C2U3 121-220 (Pongo pygmaeus entry)); assay: Western blot on GST tagged fragments
T2 construct: As GST-hMSTN 1-100aa; also called seventh fragment; not shown: GST tag from the pGEX4.1 vector
T2 sequence: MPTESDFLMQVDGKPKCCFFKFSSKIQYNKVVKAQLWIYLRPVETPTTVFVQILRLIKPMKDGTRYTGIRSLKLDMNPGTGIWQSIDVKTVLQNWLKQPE
From the text: as §1

[3] = target: T3, GST-hMSTN 141-241aa (human, UniProt A1C2U3 141-241 (Pongo pygmaeus entry)); assay: Western blot on GST tagged fragments
T3 construct: As GST-hMSTN 1-100aa; also called eighth fragment; not shown: GST tag from the pGEX4.1 vector
T3 sequence: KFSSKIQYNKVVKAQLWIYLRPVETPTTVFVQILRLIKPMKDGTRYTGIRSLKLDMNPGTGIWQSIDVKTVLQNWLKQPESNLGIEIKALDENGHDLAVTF
From the text: as §1

[4] = target: T4, Human latent myostatin (human, UniProt O14793 25-266; O14793 267-375); assay: SPR (BIACORE T200), 37 C, pH7.4, avidity condition (capture 185 RU), 1:1 fit; pH 7.4
T4 construct: Biotinylated in the ELISAs; also called human myostatin latent form
T4 sequence 1: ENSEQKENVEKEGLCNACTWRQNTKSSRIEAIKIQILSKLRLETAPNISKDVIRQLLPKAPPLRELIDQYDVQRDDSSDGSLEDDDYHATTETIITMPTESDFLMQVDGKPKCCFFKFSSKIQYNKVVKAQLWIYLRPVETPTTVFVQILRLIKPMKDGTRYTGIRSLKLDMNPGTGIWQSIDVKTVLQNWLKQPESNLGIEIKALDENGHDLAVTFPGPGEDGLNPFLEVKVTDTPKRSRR
T4 sequence 2: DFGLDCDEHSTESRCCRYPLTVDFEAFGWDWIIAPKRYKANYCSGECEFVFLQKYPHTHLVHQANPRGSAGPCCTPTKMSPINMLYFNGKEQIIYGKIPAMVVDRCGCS
Protocol: (§2) The kinetic parameters of anti-latent myostatin antibodies against human, cynomolgus monkey (cyno), and mouse latent myostatin were assessed at 37° C. at pH7.4 using a BIACORE® T200 instrument (GE Healthcare). ProA/G (Pierce) was immobilized onto all flow cells of a CM4 chip using amine coupling kit (GE Healthcare). Anti-latent myostatin antibody and analytes were prepared in ACES pH7.4 (20 mM ACES, 150 mM NaCl, 1.2 mM CaCl₂), 0.05% TWEEN® 20, 0.005% NaN₃). […] Then human, cyno, or mouse latent myostatin was injected at 3.125 to 50 nM prepared by two-fold serial dilution, followed by dissociation. The sensor surface was regenerated with 25 mM NaOH. Kinetic parameters were determined by processing and fitting the data to a 1:1 binding model using BIACORE® T200 Evaluation software, version 2.0 (GE Healthcare).
(§3) All experimental settings were the same as in Example 7, except that measurements were also performed in ACES pH5.8 buffer in addition to ACES pH7.4 condition. Some antibodies were only measured against human latent myostatin. Antibody capture level was aimed at 185 RU and 18.5 RU, for avidity and affinity assay, respectively. Kinetic parameters were determined using 1:1 Binding fitting using BIACORE® T200 Evaluation software, version 2.0 (GE Healthcare).

[5] = target: T5, Cynomolgus monkey latent myostatin (cynomolgus monkey, UniProt Q95J86 25-266; Q95J86 267-375); assay: as above
T5 construct: signal 1-24; also called Cyno latent myostatin
T5 sequence 1: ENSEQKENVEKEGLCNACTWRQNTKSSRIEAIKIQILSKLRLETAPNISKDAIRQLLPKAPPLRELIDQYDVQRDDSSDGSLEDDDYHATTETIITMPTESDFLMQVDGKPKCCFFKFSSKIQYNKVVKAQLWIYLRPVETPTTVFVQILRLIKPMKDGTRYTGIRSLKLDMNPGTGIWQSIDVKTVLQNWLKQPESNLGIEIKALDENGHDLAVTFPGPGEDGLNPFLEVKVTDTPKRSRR
T5 sequence 2: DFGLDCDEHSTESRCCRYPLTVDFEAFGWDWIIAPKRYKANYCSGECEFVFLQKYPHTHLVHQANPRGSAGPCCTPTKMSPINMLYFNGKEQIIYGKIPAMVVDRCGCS
Protocol: as §2, §3

[6] = target: T6, Mouse latent myostatin (mouse, UniProt O08689 26-267; O08689 268-376); assay: as above
T6 construct: signal 1-24
T6 sequence 1: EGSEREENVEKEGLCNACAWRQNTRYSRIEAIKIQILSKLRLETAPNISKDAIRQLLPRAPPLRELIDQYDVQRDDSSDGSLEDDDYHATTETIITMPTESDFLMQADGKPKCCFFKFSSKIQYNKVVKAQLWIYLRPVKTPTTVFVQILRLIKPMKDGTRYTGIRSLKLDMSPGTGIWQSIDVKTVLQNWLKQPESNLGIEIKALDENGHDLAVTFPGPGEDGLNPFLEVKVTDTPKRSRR
T6 sequence 2: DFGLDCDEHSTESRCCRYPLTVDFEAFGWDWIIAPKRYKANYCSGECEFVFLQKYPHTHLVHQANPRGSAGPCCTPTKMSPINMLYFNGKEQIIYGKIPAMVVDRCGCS
Protocol: as §2, §3

[7] = target: T4, Human latent myostatin; assay: SPR (BIACORE T200), 37 C, pH5.8, avidity condition (capture 185 RU), 1:1 fit; pH 5.8
Protocol: as §2, §3

[8] = target: T5, Cynomolgus monkey latent myostatin; assay: as above
Protocol: as §2, §3

[9] = target: T6, Mouse latent myostatin; assay: as above
Protocol: as §2, §3

[10] = target: T4, Human latent myostatin; assay: SPR (BIACORE T200), 37 C, pH7.4, 1:1 fit; title prints avidity, by the text the affinity condition (capture 18.5 RU)
Protocol: as §2, §3

[11] = target: T5, Cynomolgus monkey latent myostatin; assay: as above
Protocol: as §2, §3

[12] = target: T6, Mouse latent myostatin; assay: as above
Protocol: as §2, §3

[13] = target: T7, human FcγRIIb constitutively expressed on MDCK cells (human, UniProt P31994 43-310); assay: cell-based or functional assay
T7 sequence (looked up): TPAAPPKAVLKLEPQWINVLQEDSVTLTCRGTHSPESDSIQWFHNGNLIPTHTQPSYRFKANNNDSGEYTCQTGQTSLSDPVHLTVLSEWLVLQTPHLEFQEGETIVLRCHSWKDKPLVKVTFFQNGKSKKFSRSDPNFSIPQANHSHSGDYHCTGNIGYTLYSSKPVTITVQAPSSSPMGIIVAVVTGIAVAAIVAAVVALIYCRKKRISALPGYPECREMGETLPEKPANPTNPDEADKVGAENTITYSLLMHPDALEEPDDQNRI

B1: MST1032 (as tested in Example 26) (antibody, V domains shown)
VH: QSLEESGGRLVTPGGSLTVTCRVSGIDLSSYDISWVRQAPGKGLEWIGIISYAGSTYYASWAKGRFTISKTSTTVDLKMTSLTTEDTATYFCARGVPAYSTGGDLWGPGTLVTVSS
VL: AQVLTQTASSVSAAVGGTVTINCQSSQSVYDNNWLSWFQQKPGQPPKLLIYWASTLASGVPSRFKGSGSGTQFTLTISDLECDDAATYYCAGGYGGGLYAFGGGTKVEIK
binding result [1]: no binding
binding result [2]: no binding
binding result [3]: no binding

B3: MS103240H795-TT14/M103202L1045-SK1 (antibody, human IgG1, kappa)
heavy: QVQLVESGGGLVQPGGSLRLSCAVSGIDLSHDDISWVRQAPGKGLEWVSIISYAGSTYYASWAKGRLTISKDTSKNQVVLTMTNMDPVDTATYYCARGVPAYSHGGDLWGQGTLVTVSSASTKGPSVFPLAPSSKSTSGGTAALGCLVKDYFPEPVTVSWNSGALTSGVHTFPAVLQSSGLYSLSSVVTVPSSSLGTQTYICNVNHKPSNTKVDKKVEPKSCDKTHTCPPCPAPEYLGGDSVFLFPPKPKDVLMISRTPEVTCVVIDVSHEDPEVKFNWYVDGVEVHNAKTKPREEQYNSTYRVVSVLPVLHQDWLNGKEYKCKVSNKALPKPIEKTISKAKGQPREPQVYTLPPSREEMTKNQVSLTCLVKGFYPSDIAVEWESNGQPENNYKTTPPVLDSDGSFFLYSKLTVDKSRWQQGNVFSCSVMHEALHNHYTQKSLSLSP
light: DIVMTQSPATLSLSPGERATLSCTTSQSVYHENWLSWFQQKPGQPPKLLIYWASTLAYGVPSRFSGSGSGTDFTLTISSLQPEDAATYYCAGGYGGGRYAFGQGTKVEIKRTVAAPSVFIFPPSDEQLKSGTASVVCLLNNFYPREAKVQWKVDNALQSGNSQESVTEQDSKDSTYSLSSTLTLSKADYEKHKVYACEVTHQGLSSPVTKSFNRGEC
cell imaging: fluorescence intensity of labelled human latent myostatin taken up as antigen-antibody complex into MDCK cells expressing human FcγRIIb, relative to SG1 [13]: 7.5 fold

Results, then the binder that gave them:

Kd [4]: 0.17 nM
koff [4]: 0.000216 s⁻¹
kon [4]: 1.27e+06 M⁻¹ s⁻¹
Kd [5]: 0.165 nM
koff [5]: 0.000197 s⁻¹
kon [5]: 1.19e+06 M⁻¹ s⁻¹
Kd [6]: 0.149 nM
koff [6]: 0.000217 s⁻¹
kon [6]: 1.45e+06 M⁻¹ s⁻¹
Kd [7]: 19.9 nM
koff [7]: 0.0242 s⁻¹
kon [7]: 1.22e+06 M⁻¹ s⁻¹
Kd [8]: 8.9 nM
koff [8]: 0.0068 s⁻¹
kon [8]: 764000 M⁻¹ s⁻¹
Kd [9]: 6.15 nM
koff [9]: 0.00625 s⁻¹
kon [9]: 1.02e+06 M⁻¹ s⁻¹
Kd [10]: 0.788 nM
koff [10]: 0.00129 s⁻¹
kon [10]: 1.64e+06 M⁻¹ s⁻¹
Kd [11]: 0.954 nM
koff [11]: 0.0011 s⁻¹
kon [11]: 1.15e+06 M⁻¹ s⁻¹
Kd [12]: 0.713 nM
koff [12]: 0.00107 s⁻¹
kon [12]: 1.5e+06 M⁻¹ s⁻¹
B2: MS_M103205H714-SG1/M103202L861-SK1 (antibody, human IgG1, kappa, V domains shown)
VH: QVTLKESGPVLVKPTETLTLTCTVSGIDLSHTDISWVRQAPGKGLEWVGIISYAGSTYYASWAKGRLTISKDTSKNQVVLTMTNMDPVDTATYYCARGVPAYSHGGDLWGQGTLVTVSS
VL: DIVMTQSPATLSLSPGERATLSCTSSQSVYHNNWLSWFQQKPGQPPKLLIYWASTLAYGVPSRFSGSGSGTDFTLTISSLQPEDAATYYCAGGYGGGRYAFGQGTKVEIKR
notes: also called MS1032LO01-SG1; MSLO-01

cell imaging: uptake of labelled antigen-antibody complex into MDCK cells expressing human FcγRIIb, relative to SG1 [13]: 36 fold
B4: MS103240H795-TT33/M103202L1045-SK1 (antibody, human IgG1, kappa)
heavy: QVQLVESGGGLVQPGGSLRLSCAVSGIDLSHDDISWVRQAPGKGLEWVSIISYAGSTYYASWAKGRLTISKDTSKNQVVLTMTNMDPVDTATYYCARGVPAYSHGGDLWGQGTLVTVSSASTKGPSVFPLAPSSKSTSGGTAALGCLVKDYFPEPVTVSWNSGALTSGVHTFPAVLQSSGLYSLSSVVTVPSSSLGTQTYICNVNHKPSNTKVDKKVEPKSCDKTHTCPPCPAPEYLGGDSVFLFPPKPKDVLMISRTPEVTCVVIDVSHEDPEVKFNWYVDGVEVHNAKTKPREEQYNSTYRVVSVLPVLHRDWLNGKEYKCKVSNKALPKPIEKTISKAKGQPREPQVYTLPPSREEMTKNQVSLTCLVKGFYPSDIAVEWESNGQPENNYKTTPPVLDSDGSFFLYSKLTVKKSRWQQGNVFSCSVMHEALHNHYTQKSLSLSP
light: DIVMTQSPATLSLSPGERATLSCTTSQSVYHENWLSWFQQKPGQPPKLLIYWASTLAYGVPSRFSGSGSGTDFTLTISSLQPEDAATYYCAGGYGGGRYAFGQGTKVEIKRTVAAPSVFIFPPSDEQLKSGTASVVCLLNNFYPREAKVQWKVDNALQSGNSQESVTEQDSKDSTYSLSSTLTLSKADYEKHKVYACEVTHQGLSSPVTKSFNRGEC
